Assay results from patent US20120282285.

B1: MBL-Associated Serine Protease-2 (MASP-2) (protein)
chain: TPLGPKWPEPVFGRLASPGFPGEYANDQERRWTLTAPPGYRLRLYFTHFDLELSHLCEYDFVKLSSGAKVLATLCGQESTDTERAPGKDTFYSLGSSLDITFRSDYSNEKPFTGFEAFYAAEDIDECQVAPGEAPTCDHHCHNHLGGFYCSCRAGYVLHRNKRTCSALCSGQVFTQRSGELSSPEYPRPYPKLSSCTYSISLEEGFSVILDFVESFDVETHPETLCPYDFLKIQTDREEHGPFCGKTLPHRIETKSNTVTITFVTDESGDHTGWKIHYTSTAQPCPYPMAPPNGHVSPVQAKYILKDSFSIFCETGYELLQGHLPLKSFTAVCQKDGSWDRPMPACSIVDCGPPDDLPSGRVEYITGPGVTTYKAVIQYSCEETFYTMKVNDGKYVCEADGFWTSSKGEKSLPVCEPVCGLSARTTGGRIYGGQKAKPGDFPWQVLILGGTTAAGALLYDNWVLTAAHAVYEQKHDASALDIRMGTLKRLSPHYTQAWSEAVFIHEGYTHDAGFDNDIALIKLNNKVVINSNITPICLPRKEAESFMRTDDIGTASGWGLTQRGFLARNLMYVDIPIVDHQKCTAAYEKPPYPRGSVTANMLCAGLESGGKDSCRGDSGGALVFLDSETERWFVGGIVSWGSMNCGEAGQYGVYTKVINYIPWIENIISDF
B2: MBL-Associated Serine Protease-1 (MASP-1) (protein)
chain: HTVELNNMFGQIQSPGYPDSYPSDSEVTWNITVPDGFRIKLYFMHFNLESSYLCEYDYVKVETEDQVLATFCGRETTDTEQTPGQEVVLSPGSFMSITFRSDFSNEERFTGFDAHYMAVDVDECKEREDEELSCDHYCHNYIGGYYCSCRFGYILHTDNRTCRVECSDNLFTQRTGVITSPDFPNPYPKSSECLYTIELEEGFMVNLQFEDIFDIEDHPEVPCPYDYIKIKVGPKVLGPFCGEKAPEPISTQSHSVLILFHSDNSGENRGWRLSYRAAGNECPELQPPVHGKIEPSQAKYFFKDQVLVSCDTGYKVLKDNVEMDTFQIECLKDGTWSNKIPTCKIVDCRAPGELEHGLITFSTRNNLTTYKSEIKYSCQEPYYKMLNNNTGIYTCSAQGVWMNKVLGRSLPTCLPVCGLPKFSRKLMARIFNGRPAQKGTTPWIAMLSHLNGQPFCGGSLLGSSWIVTAAHCLHQSLDPEDPTLRDSDLLSPSDFKIILGKHWRLRSDENEQHLGVKHTTLHPQYDPNTFENDVALVELLESPVLNAFVMPICLPEGPQQEGAMVIVSGWGKQFLQRFPETLMEIEIPIVDHSTCQKAYAPLKKKVTRDMICAGEKEGGKDACAGDSGGPMVTLNRERGQWYLVGTVSWGDDCGKKDRYGVYSYIHHNKDWIQRVTGVRN

Experiments:
[1] = target: mannose-binding lectin (MBL), P11226
Sequence of mannose-binding lectin (MBL), P11226 (P11226 21-248): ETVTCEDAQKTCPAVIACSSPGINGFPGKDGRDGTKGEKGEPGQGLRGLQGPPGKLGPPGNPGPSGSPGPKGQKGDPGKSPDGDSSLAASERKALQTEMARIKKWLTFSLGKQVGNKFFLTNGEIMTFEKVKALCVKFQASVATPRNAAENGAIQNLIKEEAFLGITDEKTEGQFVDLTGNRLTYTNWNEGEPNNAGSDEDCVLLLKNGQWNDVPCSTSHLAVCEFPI

Sequence of Ficolin-3, O75636 (O75636 24-299): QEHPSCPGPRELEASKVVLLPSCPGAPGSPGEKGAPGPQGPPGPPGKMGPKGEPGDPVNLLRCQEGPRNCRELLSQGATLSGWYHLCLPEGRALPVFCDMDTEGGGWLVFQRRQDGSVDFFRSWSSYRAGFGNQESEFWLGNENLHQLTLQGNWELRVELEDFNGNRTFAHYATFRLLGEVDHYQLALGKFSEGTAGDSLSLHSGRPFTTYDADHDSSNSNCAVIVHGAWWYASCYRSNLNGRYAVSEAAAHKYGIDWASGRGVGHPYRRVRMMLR

Protein	C4 deposition (OD490-650nm), AcBSA/rFicolin-3 with Ficolin-3 deficient serum (Ficolin-3, O75636)	C4 deposition (OD490-650nm), mannan/rMBL with MBL deficient serum [1]	complement activation (C3 and C4) [1]
B1	Application of rMASP-2 resulted in a strong positive dose dependent enhancement of the C4 deposition via both the Ficolin-3 and MBL activation pathways (FIGS. 25B and 25E)	Application of rMASP-2 resulted in a strong positive dose dependent enhancement of the C4 deposition via both the Ficolin-3 and MBL activation pathways (FIGS. 25B and 25E)	MASP-2 were able to strongly activate both the C3 and C4 complement proteins
B2			MASP-1 were able to activate both the C3 and C4 complement proteins
